# Laboratory results taken from US20250018052A1 (CHIA TAI TIANQING PHARMACEUTICAL GROUP, published 2025).
# B1: Patritumab-eribulin-D2 (antibody, human IgG1, kappa, V domains shown)
# VH: QVQLQQWGAGLLKPSETLSLTCAVYGGSFSGYYWSWIRQPPGKGLEWIGEINHSGSTNYNPSLKSRVTISVETSKNQFSLKLSSVTAADTAVYYCARDKWTWYFDLWGRGTLVTVSS
# VL: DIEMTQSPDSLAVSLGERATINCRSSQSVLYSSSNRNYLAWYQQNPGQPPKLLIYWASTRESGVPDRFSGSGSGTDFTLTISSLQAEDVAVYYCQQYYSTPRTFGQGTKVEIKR
# modifications: MC-GGFG-eribulin (compound III-1) conjugated to cysteine sulfhydryls freed by TCEP reduction of the antibody's disulfide bonds; positions not given; average DAR 2.6 per antibody
# notes: also called patritumab-eribulin conjugate with a DAR of 2.6
# B2: Patritumab-eribulin-D8 (antibody, human IgG1, kappa, V domains shown)
# VH: B1 VH
# VL: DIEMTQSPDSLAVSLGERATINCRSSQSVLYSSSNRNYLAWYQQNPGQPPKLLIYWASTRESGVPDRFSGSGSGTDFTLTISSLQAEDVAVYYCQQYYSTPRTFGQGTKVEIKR
# modifications: MC-GGFG-eribulin (compound III-1) conjugated to cysteine sulfhydryls freed by TCEP reduction of the antibody's disulfide bonds; positions not given; average DAR 7.6 per antibody
# notes: also called patritumab-eribulin conjugate with a DAR of 7.6
# B3: Patritumab-eribulin-D4 (antibody, human IgG1, kappa, V domains shown)
# VH: B1 VH
# VL: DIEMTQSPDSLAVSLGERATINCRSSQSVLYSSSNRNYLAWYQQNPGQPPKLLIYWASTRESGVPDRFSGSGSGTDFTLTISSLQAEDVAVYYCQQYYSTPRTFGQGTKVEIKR
# modifications: MC-GGFG-eribulin (compound III-1) conjugated to cysteine sulfhydryls freed by TCEP reduction of the antibody's disulfide bonds; positions not given; average DAR 4.0-4.2 per antibody
# notes: also called patritumab-eribulin conjugate with DAR of 4.0-4.2
# B4: Patritumab-DDDXd-D8 (antibody, human IgG1, kappa, V domains shown)
# VH: B1 VH
# VL: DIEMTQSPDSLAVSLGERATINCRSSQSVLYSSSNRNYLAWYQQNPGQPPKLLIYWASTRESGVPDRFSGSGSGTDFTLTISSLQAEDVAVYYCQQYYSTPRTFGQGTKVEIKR
# modifications: MC-GGFG-DDDXd (deuterated MC-GGFG-DXd) conjugated to cysteine sulfhydryls freed by TCEP reduction of the antibody's disulfide bonds; positions not given; average DAR 7.9 per antibody
# notes: also called patritumab-DDDXd conjugate with a DAR of 7.9; patritumab-DDDX-D8
# B5: Patritumab (antibody, human IgG1, kappa, V domains shown)
# VH: B1 VH
# VL: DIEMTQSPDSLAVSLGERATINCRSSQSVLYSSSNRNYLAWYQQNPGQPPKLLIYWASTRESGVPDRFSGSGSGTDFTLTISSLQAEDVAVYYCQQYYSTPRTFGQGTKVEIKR
# notes: Naked antibody expressed in Expi-CHO cells and purified by Protein A; also called fully human anti-HER3 monoclonal antibody
# Target: T1, HER3 (human epidermal growth factor receptor 3) (human, UniProt P21860 20-1342)
# Assay: cell-based or functional assay
Binder,"Endocytosis EC50 (nM), BT474 cells, pHrodo Green-labelled anti-human IgG Fc, FACS [nM]","Endocytosis EC50 (nM), MCF-7 cells, pHrodo Green-labelled anti-human IgG Fc, FACS [nM]","Endocytosis EC50 (nM), NCI-N87 cells, pHrodo Green-labelled anti-human IgG Fc, FACS [nM]"
B1,1.07,0.58,4.5
B2,0.931,1.25,9.46
B3,0.962,0.797,4.72
B4,0.859,0.869,56.8
B5,0.821,0.509,

# Target: T1, HER3 (human epidermal growth factor …)
# Assay: FACS (MFI) on SW620 cells, low HER3 expression; anti-human IgG-Fc-PE secondary
# Method: (§1) The cells were incubated at 4° C. for 60 min and centrifuged at 1000 rpm for 5 min. […] The cells were washed 3 times with pre-cooled PBS (pH 7.4) and resuspended in 100 μL of PBS (pH 7.4), and then the fluorescence signals were analyzed and detected using a flow cytometer (Sartorius, iQUE). […] Data were analyzed using GraphPad Prism5.
row,Binder,EC50 [nM]
1,B1,1.89
2,B2,1.74
3,B3,1.28
4,B4,1.37
5,B5,1.47

# Target: T1, HER3 (human epidermal growth factor …)
# Assay: FACS (MFI) on BT474 cells, high HER3 expression; anti-human IgG-Fc-PE secondary
# Method: as §1
row,Binder,EC50 [nM]
1,B1,3.05
2,B2,2.85
3,B3,2.78
4,B4,2.68
5,B5,3.02

# Target: T1, HER3 (human epidermal growth factor …)
# Assay: FACS (MFI) on MCF-7 cells, high HER3 expression; anti-human IgG-Fc-PE secondary
# Method: as §1
row,Binder,EC50 [nM]
1,B1,0.855
2,B2,1.02
3,B3,0.932
4,B4,0.77
5,B5,0.807

# Target: T1, HER3 (human epidermal growth factor …)
# Assay: FACS (MFI) on HCC1569 cells, high HER3 expression; anti-human IgG-Fc-PE secondary
# Method: as §1
row,Binder,EC50 [nM]
1,B1,1.42
2,B2,1.49
3,B3,1.49
4,B4,1.16

# Target: T1, HER3 (human epidermal growth factor …)
# Assay: FACS (MFI) on JIMT-1 cells, medium HER3 expression; anti-human IgG-Fc-PE secondary
# Method: as §1
row,Binder,EC50 [nM]
1,B1,1.59
2,B2,1.73
3,B3,1.04
4,B4,1.3
5,B5,1.51

# Target: T1, HER3 (human epidermal growth factor …)
# Assay: FACS (MFI) on MDA-MB-468 cells, medium HER3 expression; anti-human IgG-Fc-PE secondary
# Method: as §1
row,Binder,EC50 [nM]
1,B1,1.56
2,B2,3.31
3,B3,1.67
4,B4,1.7
5,B5,1.3
